Results on 5 molecules are retold here after patent US20250002599A1 (NOVAROCK BIOTHERAPEUTICS, published 2025).

Assay [1] has as its target T1, human PD-L1 expressed on the cell surface (HEK293T-PD-L1 cells; Promega artificial APC CHO-K1 cells) (human, UniProt Q9NZQ7 19-290). As to the kind of experiment: cell-based or functional assay.
Assay [2] deals with T2, human recombinant PD-L1 protein (Acro Biosystems, cat #: PD1-H5229) (human, UniProt Q9NZQ7 19-238).
T2 construct: Bought protein; also called human PD-L1; recombinant human PD-L1
As to the kind of experiment: ELISA, PD-L1 protein coated on the plate, OD 405.

Assay [3] concerns the target T3, mouse PD-L1 protein (Acro Biosystems, cat #: PD1-M5220) (mouse, UniProt Q9EP73 19-238).
T3 construct: Bought protein; also called murine PD-L1
Nature of the assay: ELISA, PD-L1 protein coated on the plate, OD 405. For orientation: ELISA stands for enzyme-linked immunosorbent assay.

Assay [4] has as its target T4, cynomolgus PD-L1 protein (Acro Biosystems, cat #: PD1-C52H4) (cynomolgus, UniProt Q9NZQ7 19-238 (human entry)).
T4 construct: Bought protein; also called cyno PD-L1
As to the kind of experiment: ELISA, PD-L1 protein coated on the plate, OD 405.

In assay [5] the target is T2, human recombinant PD-L1 protein (Acro …). As to the kind of experiment: SPR (Biacore3000), antibody captured by anti-human IgG on CM5, PD-L1 as analyte, 1:1 binding with mass transfer. For orientation: In SPR one partner is held on a chip, and binding of the other changes the refractive index at the surface.
Assay [6] has as its target T1, human PD-L1 expressed on the cell …. Nature of the assay: immunofluorescence imaging on HEK293T-PD-L1 cells.
The target of assay [7] is T5, human CD137 expressed on the cell surface of HEK293T cells (human, UniProt Q07011 24-255).
T5 construct: Stably or transiently transfected HEK293T cells; also on HEK293T and Jurkat T NFκB reporter cells; also called human CD137 (WT); 4-1BB
As to the kind of experiment: immunofluorescence imaging on HEK293T cells expressing human CD137.

Assay [8] concerns the target T6, mouse CD137 expressed on the cell surface of HEK293T cells (mouse, UniProt P20334 24-256).
T6 construct: whole, on cells; also called murine CD137; mouse 4-1BB
Nature of the assay: immunofluorescence imaging binding assay on mouse CD137-expressing HEK293T cells.

Assay [9] addresses T5, human CD137 expressed on the cell …. Nature of the assay: immunofluorescence imaging binding assay on human CD137-expressing HEK293T cells.
In assay [10] the target is T7, cynomolgus CD137 expressed on the cell surface of HEK293T cells (cynomolgus, UniProt Q07011 24-255 (human entry)).
T7 construct: also called cyno CD137
T7 chain: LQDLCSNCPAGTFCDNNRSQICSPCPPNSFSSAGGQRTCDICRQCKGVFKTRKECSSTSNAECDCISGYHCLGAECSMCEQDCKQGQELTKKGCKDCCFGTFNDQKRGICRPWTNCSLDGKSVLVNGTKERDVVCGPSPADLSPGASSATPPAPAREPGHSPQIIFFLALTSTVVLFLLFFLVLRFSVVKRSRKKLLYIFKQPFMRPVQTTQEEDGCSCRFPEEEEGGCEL
As to the kind of experiment: immunofluorescence imaging on HEK293T cells expressing cynomolgus CD137.

In assay [11] the target is T2, human recombinant PD-L1 protein (Acro …). As to the kind of experiment: ELISA, PD-L1 protein coated on the plate, OD 405. This is another data set of the same source.
The target of assay [12] is T3, mouse PD-L1 protein (Acro Biosystems, …). As to the kind of experiment: ELISA, PD-L1 protein coated on the plate, OD 405. The source holds these as a separate data set.
Assay [13] deals with T4, cynomolgus PD-L1 protein (Acro …). As to the kind of experiment: ELISA, PD-L1 protein coated on the plate, OD 405. The source holds these as a separate data set.
The target of assay [14] is T6, mouse CD137 expressed on the cell …. As to the kind of experiment: immunofluorescence imaging binding assay on mouse CD137-expressing HEK293T cells. The source holds these as a separate data set.
Assay [15] concerns the target T8, human CD137 (Sino Biological, cat #10041-H08H) (human, UniProt Q07011 24-186).
T8 construct: Bought protein used as the analyte in SPR; also called CD137 antigen in Biacore
Nature of the assay: SPR (Biacore3000), antibody captured by anti-human IgG on CM5, CD137 as analyte, 1:1 binding with mass transfer.

Assay [16] concerns the target T6, mouse CD137 expressed on the cell …. Nature of the assay: immunofluorescence imaging binding assay on mouse CD137-expressing HEK293T cells. The source holds these as a separate data set.

Where two headings read alike, the source gives them in different places.

T1 sequence (Q9NZQ7 19-290 limits assumed): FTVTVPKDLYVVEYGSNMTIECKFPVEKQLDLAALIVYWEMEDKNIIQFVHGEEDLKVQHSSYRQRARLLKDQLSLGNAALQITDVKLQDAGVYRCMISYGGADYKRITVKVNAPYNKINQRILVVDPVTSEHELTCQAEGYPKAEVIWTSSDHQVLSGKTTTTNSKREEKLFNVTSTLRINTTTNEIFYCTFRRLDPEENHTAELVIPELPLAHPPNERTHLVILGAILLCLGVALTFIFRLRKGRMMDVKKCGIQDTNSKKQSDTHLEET
T6 sequence (P20334 24-256): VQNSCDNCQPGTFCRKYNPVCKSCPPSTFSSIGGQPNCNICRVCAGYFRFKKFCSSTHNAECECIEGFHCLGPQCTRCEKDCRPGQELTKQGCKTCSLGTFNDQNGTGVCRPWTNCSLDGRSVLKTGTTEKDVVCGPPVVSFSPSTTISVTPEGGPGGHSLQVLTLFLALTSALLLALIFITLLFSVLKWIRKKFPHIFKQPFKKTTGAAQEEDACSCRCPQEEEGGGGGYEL
T8 sequence (Q07011 24-186 limits assumed): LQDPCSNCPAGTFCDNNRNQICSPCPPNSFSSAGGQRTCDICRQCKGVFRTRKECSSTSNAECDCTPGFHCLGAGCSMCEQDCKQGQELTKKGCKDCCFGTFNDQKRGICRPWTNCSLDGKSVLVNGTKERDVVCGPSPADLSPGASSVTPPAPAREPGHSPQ
T2 sequence (Q9NZQ7 19-238 limits assumed): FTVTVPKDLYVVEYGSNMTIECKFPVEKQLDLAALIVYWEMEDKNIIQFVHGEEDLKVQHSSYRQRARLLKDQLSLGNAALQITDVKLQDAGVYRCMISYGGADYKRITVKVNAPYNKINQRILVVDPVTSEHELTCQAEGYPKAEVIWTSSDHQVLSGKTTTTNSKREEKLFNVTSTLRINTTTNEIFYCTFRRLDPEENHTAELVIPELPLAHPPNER
T3 sequence (Q9EP73 19-238 limits assumed): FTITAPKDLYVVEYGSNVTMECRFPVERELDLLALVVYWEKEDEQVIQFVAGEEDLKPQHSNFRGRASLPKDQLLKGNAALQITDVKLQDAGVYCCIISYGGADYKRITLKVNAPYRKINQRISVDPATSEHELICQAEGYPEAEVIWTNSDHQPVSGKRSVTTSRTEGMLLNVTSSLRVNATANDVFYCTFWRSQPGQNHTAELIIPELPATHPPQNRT
T4 sequence (Q9NZQ7 other isoform, or with tags, fused parts or gaps limits assumed): as the sequence (Q9NZQ7 19-238 limits assumed) above, with A33T, A34S, S62N, R68Q, Q82R, F173L, T185A, T192I, H215L counted along it

B1: 1923Ab3 (antibody, V domains shown)
VH: QVQLVQSGAEVKKPGASVKVSCKASGYTFTSYDINWVRQATGQGLEWMGWMNPNSGITGYAQRFQGRVTMTRDTSISTAYMELSSLRSEDTAVYYCARHRWGKGYLDLWGRGTLVTVSS
VL: EIVMAQSPATLSLSPGERATLSCRASQSVSSSYLSWFQQKPGQAPRLLIYGASTRATGIPARFGGSGSGTDFTLTISSLQPEDFAVYYCQQDYNLPYTFGQGTKLEIK
notes: also called PD-L1 monospecific 1923Ab3; anti-PD-L1 antibody 1923Ab3
What is called EC50 is the concentration needed to bring the measured effect to its halfway point. What is called Kd is the concentration at which binding is half-saturated. As a reminder, the koff is the first-order rate constant of dissociation. As usually defined, the kon is a measure of how fast the partners come together. On to B1, for which, in [1], the “IC50, PD-1/PD-L1 blockade luciferase reporter assay” value came out at 0.43 nM. Also, in assay [2], the EC50 is 0.08 nM. In addition, in [3], the binding result is “no binding”. The same molecule came in with an EC50 in assay [4] of 0.07 nM. Also, in assay [5], the Kd is 2.95 nM, the koff is 0.0024 s⁻¹ and the kon amounted to 814000 M⁻¹ s⁻¹. In [6], this molecule had an EC50 of 0.18 nM.

B2: 1923Ab5 (antibody, human IgG1, V domains shown)
VH: QVQLVESGGGVVQPGRSLRLSCAASGFTFSSYGMHWVRQAPGKGLEWVAVIWYDGSNEYYADSVKGRFTISRDNSKNTLYLQMNSLRAEDTAVYYCARERWQWLVLFDYWGQGTLVTVSS
VL: EIVLTQSPATLSLSPGERATLSCRASQTITSSYLSWYQQKPGQAPRLLIYGASTRATGIPARFSGSGSGTDFTLTISSLQPEDFALYFCQQDFNLPYTFGQGTKLEIK
notes: also called CD137 monospecific 1923Ab5
As for B2, the EC50 in assay [7] was 1.62 nM; in [9], 1.6 nM; in [10] it was 2.77 nM. In addition, the binding result in assay [8] is given as “no binding”.

B3: 1923Ab2 (antibody, V domains shown)
VH: QVQLVESGGGVVQPGRSLRLSCAASGFTFRNYGMHWVRQAPGKGLEWVAVIWFDGINKYYADSVKGRFTISRDNSENTLYLQMNSLRAEDTAVYYCARDRSSSPFDFWGQGTLVTVSS
VL: EIVMTQSPATLSLSPGERATLSCRASQNFSNNYLSWYQQTPGQAPRLLIYGASTRATGIPARFSGSGSGTDFTLTISSLQPEDFAVYYCQQDYNLFTFGPGTKVDIK
notes: Fully human variable regions from Trianni mice; Constant region as tested not clear: hybridoma-derived (mouse constant) or recombinant human IgG1 / IgG1 variant with human kappa; also called PD-L1 monospecific 1923Ab2; anti-PD-L1 antibody 1923Ab2
As to B3, in assay [1], the “IC50, PD-1/PD-L1 blockade luciferase reporter assay” value turned out to be 0.9 nM. For the same molecule, the EC50 in assay [11] was 0.09 nM; in [13], 0.08 nM. Further, in assay [12], the binding result was “no binding”.

B4: 1923Ab4 (antibody, V domains shown)
VH: QVQLVESGGGVVQPGRSLRLSCAASGFTFSNYGMHWVRQAPGKGLEWVAIIWYDGINKYYADSVKGRFTISRDNSKNTLYLQMNSLKAEDTAVYYCARDQDYDILTGYYKEDYFDFWGQGTLVTVSS
VL: SYELTQPPSVSVSPGQTARITCSGDALPKKYAYWYQQKSGQAPVLVIYEDSKRPSGIPERFSGSSSGTMATLTISGAQVEDEADYYCYSTDSSGNRVFGGGTKLTVL
notes: also called CD137 monospecific 1923Ab4; anti-CD137 1923Ab4
With B4, in assay [14], the binding result is recorded as “no binding”. The response in assay [7] was half-maximal at 0.29 nM (EC50). In [15], binding was characterised by a dissociation constant (Kd) of 7.18 nM, the koff was found to be 0.0219 s⁻¹ and the kon is 3.05e+06 M⁻¹ s⁻¹. In addition, in assay [10], the EC50 was found to be 0.22 nM.

B5: 1923Ab6 (antibody, human IgG1, V domains shown)
VH: EVHLLESGGGLVQPGGSLRLSCAASGFTFSSYAMGWVRQAPGKGLEWVSIIGGGGGSTYYADSVKGRFTISRDNSKNTLYLQMNSLRAEDTAVYYCAKVGYSGTYGGWFDPWGQGTLVTVSS
VL: DIQMTQSPSSLSASIGDRVAITCRASQGISNYLAWFQQKPGKAPKSLIYAASSLQSGVPSKFSGSGSGTDFTLTISSLQPEDFATYYCQQYNSYPLTFGGGTKVEIK
notes: also called CD137 monospecific 1923Ab6
Consider B5, for which the EC50 in assay [7] came to 10.5 nM; in assay [9] it was 11 nM; in assay [10] it was 4.23 nM. In assay [16], the binding result was “no binding”.
